The Kd is the constant that tells how readily two partners part at equilibrium. By kon is commonly meant a measure of how fast the partners come together. The term EC50 denotes the midpoint of the concentration-response curve. The low end stands for higher potency in that assay, the high end for lower potency in that assay.

Assay [1] deals with T1, His tag recombinant human full-length CD33 (human, UniProt P20138 18-259).
T1 construct: Commercial recombinant protein (R&D Systems / Acro Biosystems); also called huCD33-His; human CD33-His; not shown: 6xHis tag
T1 sequence (P20138 18-259): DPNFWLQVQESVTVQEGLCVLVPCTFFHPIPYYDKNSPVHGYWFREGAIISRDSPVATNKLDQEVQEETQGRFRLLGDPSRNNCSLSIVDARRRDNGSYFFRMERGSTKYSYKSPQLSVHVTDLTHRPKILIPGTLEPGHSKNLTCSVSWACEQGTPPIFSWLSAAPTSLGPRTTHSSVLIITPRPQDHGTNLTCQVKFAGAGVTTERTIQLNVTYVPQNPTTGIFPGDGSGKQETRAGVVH
The assay can be described thus: BLI (Octet Red96e): antibody captured on anti-huFc biosensor, huCD33-His as analyte, 1:1 Langmuir fit. How it is done: Lead and reference antibodies were produced recombinantly with a human IgG1 constant region. Selectivity was tested using His tag recombinant human full-length CD33 or CD33-IgC, mouse full-length CD33, and cynomolgus full-length CD33 proteins. Recombinant proteins at 5 μg/mL were captured by pre-blocked Ni-NTA plates. Candidate antibodies were added at 10 μg/mL in triplicate and detected using horseradish peroxidase (HRP)-conjugated anti-human Fc antibody. To assess the binding to cell-surface-bound CD33, 3T3 cells overexpressing CD33, as well as the U937 AML cell line, were used. U937 CD33-knockout (CD33KO) or NALM6 cells were included as negative controls. NALM6, U937 CD33⁺, and CD33KO cells were blocked with human IgG Fc for 20 minutes on ice. The recombinant antibodies were then serially diluted starting at 100 μg/mL concentration and added for 30 minutes on ice. Alexa Fluor 647-conjugated goat anti-human F(ab′)₂ was added to cells for 30 minutes on ice, washed and analyzed by flow cytometry, and normalized to secondary-only staining (MFI ratio). EC₅₀ values were determined by non-linear regression. The binding affinity and epitope binning to human CD33 protein was measured by biolayer interferometry (BLI) using an Octet Red96e. All experiments were carried out using kinetic buffer (PBS pH 7.4, 0.01% BSA, 0.002% Tween-20). […]
(In general: Biolayer interferometry detects binding as a change in optical thickness at a sensor tip.)

Assay [2] addresses His tag recombinant human full-length CD33 (human) (UniProt P20138). Nature of the assay: BLI epitope binning: human CD33-His on anti-penta-His biosensor, pre-saturated with 4B2A.
For assay [3] the target is unchanged. Nature of the assay: BLI (Octet Red96e): antibody captured on anti-huFc biosensor, huCD33-His as analyte, 1:1 Langmuir fit.
Assay [4] deals with human CD33 on cells (3T3 cells over-expressing CD33; U937, OCi-AML3, HL60, Set2 AML cells with endogenous CD33) (human) (UniProt P20138). Nature of the assay: flow cytometry on U937 AML cells with endogenous CD33 (U937-CD33), Alexa Fluor 647 anti-human F(ab')2 detection, non-linear regression. In general terms: A flow cytometer gives signals particle by particle.
Sequence of human CD33 on cells (3T3 cells over-expressing CD33; U937, OCi-AML3, HL60, Set2 AML cells with endogenous CD33) (human) (P20138 18-364 limits assumed): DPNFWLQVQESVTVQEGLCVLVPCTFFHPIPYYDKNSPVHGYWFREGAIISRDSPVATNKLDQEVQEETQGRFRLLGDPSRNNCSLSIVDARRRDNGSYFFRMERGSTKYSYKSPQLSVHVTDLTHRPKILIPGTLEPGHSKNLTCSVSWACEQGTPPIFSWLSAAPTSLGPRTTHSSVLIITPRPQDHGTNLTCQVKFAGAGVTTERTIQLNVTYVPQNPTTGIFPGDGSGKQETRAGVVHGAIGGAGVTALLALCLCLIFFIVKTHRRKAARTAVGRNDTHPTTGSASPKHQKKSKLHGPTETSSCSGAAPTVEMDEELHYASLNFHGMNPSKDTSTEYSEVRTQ
For assay [5] the target is unchanged. The assay can be described thus: flow cytometry on 3T3 cells over-expressing CD33 (3T3-CD33), Alexa Fluor 647 anti-human F(ab')2 detection, non-linear regression.
Assay [6] concerns the target His tag recombinant human full-length CD33 (human) (UniProt P20138). Nature of the assay: BLI epitope binning: human CD33-His on anti-penta-His biosensor, pre-saturated with 3P14.
Assay [7] has the same target. Nature of the assay: BLI epitope binning: human CD33-His on anti-penta-His biosensor, reference biosensor (buffer), no saturating mAb.
For assay [8] the target is unchanged. The assay can be described thus: BLI epitope binning: human CD33-His on anti-penta-His biosensor, pre-saturated with H195 (self-competition).

Sequence of His tag recombinant human full-length CD33 (human) (P20138 18-259): as the sequence (P20138 18-259) above

B1: 4B2A (antibody, V domains shown)
VH: EVHLLESGGGLVQPGGSLRLSCAASGFIFSSNAMSWVRQAPGKGLEWVSAISGYGGNTYYADSVKGRFTISRDNSKNTLYLQMNSLRAEDTAVYYCAKWGTYIVGATGDYWGQGTLVTVSS
VL: QSALTQPPSASGSPGQSVTISCTGTSNDVGGYNYVSWYQQHPGKAPKLLIYEVSKRPSGVPDRFSGSQSGNTASLTVSGLQAEDEADYYCSSYAGSNNWVFGGGTKLTVL
notes: also called TDI-Y-007
For B1, the dissociation constant (Kd) in assay [1] amounted to 12.9 nM.

B2: H195 (lintuzumab) (antibody, part only; not given: constant regions, human IgG1, V domains shown, not shown: another chain or arm of the molecule)
VH: QVQLVQSGAEVKKPGSSVKVSCKASGYTFTDYNMHWVRQAPGQGLEWIGYIYPYNGGTGYNQKFKSKATITADESTNTAYMELSSLRSEDTAVYYCARGRPAMDYWGQGTLVTVSS
VL: DIQMTQSPSSLSASVGDRVTITCRASESVDNYGISFMNWFQQKPGKAPKLLIYAASNQGSGVPSRFSGSGSGTDFTLTISSLQPDDFATYYCQQSKEVPWTFGQGTKVEIK
Consider B2, for which the binding of competing mAb, % of reference biosensor in assay [2] worked out at 100%; in assay [6], 78%; in assay [7], 100%; in assay [8] it was 5%. The Kd in assay [3] was determined as 1.22 nM. In addition, the kon in assay [3] stood at 358000 M⁻¹ s⁻¹. Moreover, the EC50 in assay [4] stood at 0.4 nM; in assay [5] it was 4.8 nM.

B3: 3P14 (antibody, V domains shown)
VH: EVQLLESGGGLVQPGGSLRLSCAASGFTFSTYAMSWVRQAPGKGLEWVSAISGRGGSTYYTDSVKGRFTISRDNSKNTVSLQMNSLRAEDTAVYYCAGRGDYYYYYGMDVWGQGTTVTVSA
VL: DIVMTQSPLSSPVTLGQPASFSCRSSQSLVYSDGNTYLSWLQQRPGQPPRLLIYKISNRFSGVPDRFSGSGAGTDFTLKISRVEAEDVGVYYCMQSTQFPHTFGQGTKLEIK
notes: Hybridoma-derived mAb from AlivaMab mice; also called TDI-Y-006
On to B3, for which, in assay [1], the Kd worked out at 12.1 nM.
